B1: CHIT1 (parent)
chain: CSWKGATKQRIQDQKVPYIFRDNQ
B2: SMARCE1 (parent)
chain: YHNSPAYLAYINAKSRAEAALEEE

Variants of: B1
Experiment: protein stability index of a GFP-peptide fusion (GPS, HEK-293T) (PSI 1-6); higher = more stable
Conditions: c terminus: a fixed tail appended
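Also: lentivirally expressed fusions sorted by FACS into six bins by GFP to DsRed ratio, PSI derived from sequencing read proportions per bin multiplied by bin number.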

Protein stability index: each site, then its substitutions
C1: V 2.91 | Q 2.81 | E 3.13 | G 3.47 | M 2.89 | L 2.74 | I 2.62 | H 3.08 | P 2.86 | S 3.58 | F 1.75 | R 2.86 | N 2.88 | W 2.26 | A 3.17 | Y 1.96 | D 3.26 | K 3.36 | T 2.79
S2: L 2.18 | D 3.06 | A 2.39 | N 2.53 | M 2.43 | Q 1.93 | P 3.02 | V 1.85 | H 2.42 | G 2.07 | R 2 | C 2.06 | E 3.25 | K 2.01 | I 1.74 | T 2.17 | W 2.69 | F 3.22

Variants of: B2
Experiment: as above
Conditions: c terminus: a fixed tail appended

Protein stability index, by site and new letter:
L21: N 2.46 | V 2.67 | K 2.51 | A 2.26 | W 2.94 | Q 2.07 | M 2.04 | T 1.59 | F 3.43 | H 2.77 | Y 1.94 | C 2.89 | I 3.51 | G 2.15 | E 1.84 | R 2.1 | P 3.6 | D 1.88 | S 1.95
A13: C 3.05 | T 2.28 | V 2.33 | I 2.49 | E 1.94 | R 2.51 | L 2.21 | K 2.52 | H 2.88 | P 2.63 | W 1.64 | Q 2.83 | Y 2.13 | G 2.27 | S 1.83 | M 3.18 | D 1.94 | N 1.9 | F 2.06
Y10: G 1.75 | V 2.41 | L 2 | Q 2.19 | T 3.44 | R 3.34 | S 2.56 | F 2.32 | E 2.94 | W 2.28 | N 2.05 | C 2.25 | M 2.3 | A 3.76 | K 3.03 | H 1.68 | P 2.11 | D 2.37 | I 3
N12: A 1.77 | P 3.69 | L 2.1 | C 2.02 | Q 2.25 | Y 2.23 | R 2.04 | E 1.93 | M 2.33 | K 2.41 | T 2.06 | S 1.58 | W 2.09 | H 3.13 | I 1.64 | G 1.65 | V 2.44 | D 2.26 | F 2.28
K14: L 1.9 | D 1.16 | H 2.16 | Q 2.55 | P 1.95 | F 2.35 | A 1.79 | N 2.57 | G 2.89 | E 2.03 | C 2.14 | M 1.57 | S 1.51 | V 2.15 | I 2.81 | W 1.62 | Y 2.63 | R 2.51 | T 2.86
I11: Q 2.85 | K 2.59 | V 2.33 | E 2.64 | W 2.35 | P 3.06 | L 2.24 | D 3.19 | Y 3.27 | C 1.66 | F 2.67 | H 2.46 | G 1.87 | S 2.99 | M 2.35 | R 2.29 | N 2.59 | T 2.99
A17: N 2.67 | D 1.93 | G 3.02 | I 1.93 | Y 2.05 | F 2.24 | Q 3.13 | T 2.02 | V 2.19 | C 2.1 | H 2.22 | P 2.45 | E 1.75 | M 2.23 | K 1.53 | L 2.04 | W 2.17

Reference: the supplement of paper PMC10567573
